This test addresses T1, human DMC1, untagged, purified recombinant (human, UniProt Q14565 1-340).
T1 sequence (looked up): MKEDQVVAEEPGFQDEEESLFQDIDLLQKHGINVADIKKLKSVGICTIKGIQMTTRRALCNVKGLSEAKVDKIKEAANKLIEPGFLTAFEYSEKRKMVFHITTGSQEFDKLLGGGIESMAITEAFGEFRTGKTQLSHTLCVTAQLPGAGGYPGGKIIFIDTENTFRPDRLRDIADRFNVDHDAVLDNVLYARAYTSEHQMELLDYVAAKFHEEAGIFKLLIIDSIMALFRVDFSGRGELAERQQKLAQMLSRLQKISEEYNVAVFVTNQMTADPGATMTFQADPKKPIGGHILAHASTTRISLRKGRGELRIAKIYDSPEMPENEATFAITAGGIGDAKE
The test is described as follows: pull-down.

B1: human his-GST-TEV-BRCA2 F2s3 (aa 2379-2433), wild type (domain or fragment, UniProt P51587 2379-2433, looked up)
chain: GHPFYQVSATRNEKMRHLITTGRPTKVFVPPFKTKSHFHRVEQCVRNINLEENRQ
In the case of B1, the binding result is “binds”.

For the origin of these results see publication doi:10.1101/2023.10.06.561239 (bioRxiv, 2023).
